Test results as given in paper PMC9482650, “Quantitative fragmentomics allow affinity mapping of interactomes” (Nature Communications, 2022).

Experiments:
Assay in all cases: holdup assay
Set-up in all cases: key: below the threshold = too weak to quantify, mostly under pKd 3.1 to 4
Details in all cases: plain residues with an end cap or a label only (N-terminal biotin on a linker: ado-ado)
AHNAK1, Q09666 = target: AHNAK1, Q09666
APBA3_1, O96018 = target: T1, APBA3_1, O96018
T1 sequence (O96018 389-490, limits assumed, looked up): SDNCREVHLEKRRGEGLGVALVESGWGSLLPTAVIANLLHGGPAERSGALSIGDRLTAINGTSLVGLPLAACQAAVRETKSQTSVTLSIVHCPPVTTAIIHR

DLG3_3, Q92796 = target: T2, DLG3_3, Q92796
T2 sequence (Q92796 374-475, limits assumed, looked up): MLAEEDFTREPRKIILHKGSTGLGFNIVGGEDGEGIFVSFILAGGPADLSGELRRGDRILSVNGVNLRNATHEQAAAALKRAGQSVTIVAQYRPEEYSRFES

DLG4_3, P78352 = target: DLG4_3, P78352
DLG5_1, Q8TDM6 = target: DLG5_1, Q8TDM6
FRMPD2_3, Q68DX3 = target: FRMPD2_3, Q68DX3
FRMPD4, Q14CM0 = target: FRMPD4, Q14CM0
GIPC2, Q8TF65 = target: GIPC2, Q8TF65
GORASP1, Q9BQQ3 = target: GORASP1, Q9BQQ3
GRID2IP_2, A4D2P6 = target: GRID2IP_2, A4D2P6
IL16_3, Q14005 = target: IL16_3, Q14005
Inadl_1, Q8NI35 = target: Inadl_1, Q8NI35
Inadl_4, Q8NI35 = target: Inadl_4, Q8NI35
Inadl_5, Q8NI35 = target: Inadl_5, Q8NI35
Inadl_9, Q8NI35 = target: Inadl_9, Q8NI35
LIMK2, P53671 = target: LIMK2, P53671
LNX1_3, Q8TBB1 = target: LNX1_3, Q8TBB1
LNX2_3, Q8N448 = target: T3, LNX2_3, Q8N448
T3 sequence (Q8N448 463-564, limits assumed, looked up): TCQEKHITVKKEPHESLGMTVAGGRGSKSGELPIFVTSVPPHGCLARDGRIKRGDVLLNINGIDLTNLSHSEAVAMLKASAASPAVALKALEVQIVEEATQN

LRRC7, Q96NW7 = target: T4, LRRC7, Q96NW7
T4 sequence (Q96NW7 1440-1537, limits assumed, looked up): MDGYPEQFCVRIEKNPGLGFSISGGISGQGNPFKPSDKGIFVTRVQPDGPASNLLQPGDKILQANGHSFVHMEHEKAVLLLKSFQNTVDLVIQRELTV

MAGI1_2, Q96QZ7 = target: MAGI1_2, Q96QZ7
NHERF3_4, Q5T2W1 = target: T5, NHERF3_4, Q5T2W1
T5 sequence (Q5T2W1 373-468, limits assumed, looked up): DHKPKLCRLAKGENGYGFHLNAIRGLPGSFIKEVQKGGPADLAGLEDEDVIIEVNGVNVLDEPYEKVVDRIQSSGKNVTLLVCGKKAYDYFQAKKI

NHERF4_4, Q86UT5 = target: NHERF4_4, Q86UT5
NOS1, P29475 = target: NOS1, P29475
PDZD2_2, O15018 = target: T6, PDZD2_2, O15018
T6 sequence (O15018 329-429, limits assumed, looked up): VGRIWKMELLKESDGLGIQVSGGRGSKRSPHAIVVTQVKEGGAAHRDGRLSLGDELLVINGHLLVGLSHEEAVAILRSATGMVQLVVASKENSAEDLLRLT

PDZRN3_1, Q9UPQ7 = target: T7, PDZRN3_1, Q9UPQ7
T7 sequence (Q9UPQ7 244-349, limits assumed, looked up): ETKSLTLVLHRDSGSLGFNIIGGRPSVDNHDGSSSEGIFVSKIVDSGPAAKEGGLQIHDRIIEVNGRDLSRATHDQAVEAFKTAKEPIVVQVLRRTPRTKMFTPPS

SHANK1, Q9Y566 = target: T8, SHANK1, Q9Y566
T8 sequence (Q9Y566 658-767, limits assumed, looked up): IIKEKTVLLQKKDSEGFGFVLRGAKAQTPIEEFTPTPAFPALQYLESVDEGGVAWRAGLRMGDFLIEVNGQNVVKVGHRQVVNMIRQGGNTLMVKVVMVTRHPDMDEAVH

SIPA1L2, Q9P2F8 = target: T9, SIPA1L2, Q9P2F8
T9 sequence (Q9P2F8 945-1036, limits assumed, looked up): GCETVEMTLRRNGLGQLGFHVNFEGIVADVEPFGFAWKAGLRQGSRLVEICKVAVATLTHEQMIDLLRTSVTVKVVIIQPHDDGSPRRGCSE

SNX27, Q96L92 = target: SNX27, Q96L92
TJP1_3, Q07157 = target: TJP1_3, Q07157

Measured: pKd

Chain of Inadl_5, Q8NI35 (Q8NI35 673-780): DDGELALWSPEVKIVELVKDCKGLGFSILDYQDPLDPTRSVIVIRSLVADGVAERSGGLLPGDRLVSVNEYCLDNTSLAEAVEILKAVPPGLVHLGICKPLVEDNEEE
Chain of LIMK2, P53671 (P53671 143-248): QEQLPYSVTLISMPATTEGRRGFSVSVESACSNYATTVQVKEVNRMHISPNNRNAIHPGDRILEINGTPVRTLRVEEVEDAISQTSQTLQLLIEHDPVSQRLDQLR
Chain of TJP1_3, Q07157 (Q07157 416-512): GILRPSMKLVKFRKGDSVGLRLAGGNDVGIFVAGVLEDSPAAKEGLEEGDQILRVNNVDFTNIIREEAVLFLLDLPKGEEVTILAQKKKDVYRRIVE
Chain of NHERF4_4, Q86UT5 (Q86UT5 464-550): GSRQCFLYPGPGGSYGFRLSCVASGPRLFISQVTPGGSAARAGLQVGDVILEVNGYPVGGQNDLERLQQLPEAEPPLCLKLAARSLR
Chain of Inadl_1, Q8NI35 (Q8NI35 113-229): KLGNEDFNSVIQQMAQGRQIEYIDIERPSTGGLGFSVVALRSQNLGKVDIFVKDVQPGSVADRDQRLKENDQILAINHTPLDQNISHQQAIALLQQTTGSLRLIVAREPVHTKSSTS
Chain of DLG4_3, P78352 (P78352 306-403): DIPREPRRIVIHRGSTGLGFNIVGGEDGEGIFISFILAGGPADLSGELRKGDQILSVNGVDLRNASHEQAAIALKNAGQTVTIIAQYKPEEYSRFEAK
Chain of LNX1_3, Q8TBB1 (Q8TBB1 500-596): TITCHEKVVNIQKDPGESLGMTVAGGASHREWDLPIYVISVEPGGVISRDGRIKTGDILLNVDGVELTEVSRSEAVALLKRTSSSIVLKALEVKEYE
Chain of MAGI1_2, Q96QZ7 (Q96QZ7 456-580): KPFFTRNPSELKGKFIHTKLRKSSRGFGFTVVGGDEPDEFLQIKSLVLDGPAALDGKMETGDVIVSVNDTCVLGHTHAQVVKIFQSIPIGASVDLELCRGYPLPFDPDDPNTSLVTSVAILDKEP
Chain of IL16_3, Q14005 (Q14005 1107-1207): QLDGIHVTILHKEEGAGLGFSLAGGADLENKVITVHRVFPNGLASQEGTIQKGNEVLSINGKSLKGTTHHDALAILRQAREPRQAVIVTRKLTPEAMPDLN
Chain of GRID2IP_2, A4D2P6 (A4D2P6 272-370): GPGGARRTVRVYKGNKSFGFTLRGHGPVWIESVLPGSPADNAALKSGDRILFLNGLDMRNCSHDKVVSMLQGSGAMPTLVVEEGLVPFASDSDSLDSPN
Chain of FRMPD4, Q14CM0 (Q14CM0 67-160): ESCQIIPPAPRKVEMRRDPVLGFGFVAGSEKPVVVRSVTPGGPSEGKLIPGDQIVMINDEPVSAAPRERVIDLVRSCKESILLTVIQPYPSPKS
Chain of FRMPD2_3, Q68DX3 (Q68DX3 1073-1166): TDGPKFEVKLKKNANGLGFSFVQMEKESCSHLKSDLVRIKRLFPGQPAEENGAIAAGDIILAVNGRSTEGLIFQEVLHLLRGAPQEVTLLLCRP
Chain of GIPC2, Q8TF65 (Q8TF65 112-203): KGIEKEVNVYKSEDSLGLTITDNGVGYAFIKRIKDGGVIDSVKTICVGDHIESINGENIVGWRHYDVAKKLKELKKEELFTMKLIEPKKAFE
Chain of GORASP1, Q9BQQ3 (Q9BQQ3 1-208): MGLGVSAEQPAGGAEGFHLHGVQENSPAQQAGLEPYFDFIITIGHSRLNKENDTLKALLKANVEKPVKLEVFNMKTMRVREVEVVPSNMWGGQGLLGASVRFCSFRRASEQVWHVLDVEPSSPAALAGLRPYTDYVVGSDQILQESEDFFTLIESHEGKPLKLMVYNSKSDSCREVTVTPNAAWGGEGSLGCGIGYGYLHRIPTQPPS
Chain of AHNAK1, Q09666 (Q09666 4-100): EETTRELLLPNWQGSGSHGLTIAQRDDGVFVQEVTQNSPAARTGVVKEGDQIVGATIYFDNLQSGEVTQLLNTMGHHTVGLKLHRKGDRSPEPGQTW
Chain of Inadl_4, Q8NI35 (Q8NI35 547-651): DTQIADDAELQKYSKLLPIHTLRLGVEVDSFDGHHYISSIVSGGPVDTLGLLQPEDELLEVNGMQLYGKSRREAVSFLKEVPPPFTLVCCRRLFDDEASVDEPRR
Chain of DLG5_1, Q8TDM6 (Q8TDM6 617-713): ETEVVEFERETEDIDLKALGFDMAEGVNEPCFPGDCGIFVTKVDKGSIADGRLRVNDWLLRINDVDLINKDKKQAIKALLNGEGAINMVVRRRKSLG
Chain of NOS1, P29475 (P29475 9-101): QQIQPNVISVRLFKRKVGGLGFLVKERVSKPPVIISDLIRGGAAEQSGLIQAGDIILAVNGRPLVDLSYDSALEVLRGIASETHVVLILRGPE
Chain of Inadl_9, Q8NI35 (Q8NI35 1530-1615): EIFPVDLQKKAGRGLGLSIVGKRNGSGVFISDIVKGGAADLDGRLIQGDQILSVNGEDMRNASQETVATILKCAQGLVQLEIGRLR

VGIERETDVL [EZH1, Q92800]
3.87: FRMPD4, Q14CM0
below the threshold: all other assays above

EGGKKRESEA [APPL1, Q9UKG1]
below the threshold: all assays above

PKLMGVETVV [DUSP10, Q9Y6W6]
3.61: FRMPD2_3, Q68DX3
4.01: DLG4_3, P78352
4.36: GORASP1, Q9BQQ3
3.56: Inadl_5, Q8NI35
4.22: PDZD2_2, O15018
3.69: PDZRN3_1, Q9UPQ7
3.83: LRRC7, Q96NW7
3.55: Inadl_9, Q8NI35
3.91: DLG3_3, Q92796
4.14: MAGI1_2, Q96QZ7
4.08: NOS1, P29475
5.23: SNX27, Q96L92
below the threshold: all other assays above

QLAEIAESGL [ITK, Q08881]
3.71: FRMPD4, Q14CM0
3.55: DLG3_3, Q92796
3.67: SIPA1L2, Q9P2F8
3.53: GORASP1, Q9BQQ3
3.66: LNX1_3, Q8TBB1
3.89: PDZRN3_1, Q9UPQ7
3.63: GIPC2, Q8TF65
3.58: Inadl_5, Q8NI35
3.78: DLG5_1, Q8TDM6
5.4: SNX27, Q96L92
3.76: SHANK1, Q9Y566
3.54: NHERF3_4, Q5T2W1
3.68: PDZD2_2, O15018
3.62: DLG4_3, P78352
3.61: GRID2IP_2, A4D2P6
3.74: IL16_3, Q14005
below the threshold: all other assays above
